Measurements taken from patent US7741277 (AETERNA ZENTARIS, dated 2010).
Values joined by “and” are separate entries in the source; they are usually repeats but may differ in a detail not shown here. Equal values may be shown once.

Molecular target: T1, human GnRH receptor (hGnRH-R) (human, UniProt P30968 1-328)
T1 sequence (looked up): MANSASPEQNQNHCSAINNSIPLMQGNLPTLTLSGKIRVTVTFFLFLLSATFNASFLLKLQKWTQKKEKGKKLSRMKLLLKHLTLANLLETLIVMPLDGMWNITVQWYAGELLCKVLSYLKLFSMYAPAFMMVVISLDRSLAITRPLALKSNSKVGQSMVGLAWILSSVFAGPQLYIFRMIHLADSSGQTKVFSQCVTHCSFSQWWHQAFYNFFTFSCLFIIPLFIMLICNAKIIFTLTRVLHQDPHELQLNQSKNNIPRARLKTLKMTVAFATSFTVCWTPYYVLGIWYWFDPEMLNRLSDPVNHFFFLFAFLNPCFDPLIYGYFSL
Test: cell-based or functional assay

Q: With AN-152 (peptide) as the molecule, how does the proliferation status after 96 h (vital cells, untreated control = 100%), hGnRH-R positive cell line 5C6, 100 nM (% of untreated control) read?
A: 42.1 and 43.9

B1: disorazole E1 mono hemi succinyl [D-Lys^6]LHRH, both regio-isomers (13) & (14) (peptide)
peptide: XHWSYKLRPG
modifications: Glp (pyroglutamate) at 1; D-Lys at 6, joined through a succinyl linker to disorazole E1; C-terminal amide
Q: How did the “proliferation status after 96 h (vital cells, untreated control = 100%), hGnRH-R positive cell line 5C6, 0.1 nM” value turn out when B1 was run?
A: 85.9 % of untreated control

Q: And the “proliferation status after 96 h (vital cells, untreated control = 100%), hGnRH-R positive cell line 5C6, 1 nM” value?
A: 80.8 % of untreated control

Q: And the “proliferation status after 96 h (vital cells, untreated control = 100%), hGnRH-R positive cell line 5C6, 10 nM” value?
A: 45.9 % of untreated control

Q: And the “proliferation status after 96 h (vital cells, untreated control = 100%), hGnRH-R positive cell line 5C6, 100 nM” value?
A: 14.6 % of untreated control

B2: disorazole Z bis hemi glutaryl [D-Lys^6]LHRH (17) (peptide)
peptide: XHWSYKLRPG
modifications: Glp (pyroglutamate) at 1; D-Lys at 6, joined through a glutaryl linker to disorazole Z; C-terminal amide
Q: Which results are given for B2?
A: proliferation status after 96 h (vital cells, untreated control = 100%), hGnRH-R positive cell line 5C6, 0.1 nM: 95.5 % of untreated control; proliferation status after 96 h (vital cells, untreated control = 100%), hGnRH-R positive cell line 5C6, 1 nM: 85.9 % of untreated control; proliferation status after 96 h (vital cells, untreated control = 100%), hGnRH-R positive cell line 5C6, 10 nM: 58.5 % of untreated control; proliferation status after 96 h (vital cells, untreated control = 100%), hGnRH-R positive cell line 5C6, 100 nM: 41.7 % of untreated control

B3: disorazole Z mono hemi succinyl [D-Lys^6]LHRH (16) (peptide)
peptide: XHWSYKLRPG
modifications: Glp (pyroglutamate) at 1; D-Lys at 6, joined through a succinyl linker to disorazole Z; C-terminal amide
Q: B3 was tested. Which “proliferation status after 96 h (vital cells, untreated control = 100%), hGnRH-R positive cell line 5C6, 0.1 nM” value did it give?
A: 83.8 % of untreated control

Q: What about the “proliferation status after 96 h (vital cells, untreated control = 100%), hGnRH-R positive cell line 5C6, 1 nM” value of the same molecule?
A: 80.9 % of untreated control

Q: And the “proliferation status after 96 h (vital cells, untreated control = 100%), hGnRH-R positive cell line 5C6, 10 nM” value?
A: 54.1 % of untreated control

Q: And the “proliferation status after 96 h (vital cells, untreated control = 100%), hGnRH-R positive cell line 5C6, 100 nM” value?
A: 21.9 % of untreated control
